Experiments:
[1] = target: Flag-tagged Atlantic halibut Aqp1ab1 wild-type canonical channel (Flag-HhAqp1ab1-WT) (Atlantic halibut (Hippoglossus hippoglossus))
[2] = target: Flag-tagged Senegalese sole Aqp1ab2 wild-type canonical channel (Flag-SsAqp1ab2-WT) (Senegalese sole (Solea senegalensis))

| inhibition of osmotic water permeability (Pf) of X. laevis oocytes coexpressing HhAqp1ab1 v1 and HhAqp1ab1-WT in ratios from 0.05 to 50, untagged forms, with respect to the canonical channel only [1] | inhibition of osmotic water permeability (Pf) of X. laevis oocytes expressing SsAqp1ab2-WT plus YwhazLb, treated with FSK, after injecting equal cRNA amounts of WT and SsAqp1ab2 v2, untagged forms [2] | Substance |
| --- | --- | --- |
| 94% | – | HA-tagged Atlantic halibut Aqp1ab1 splice variant 1 (HA-HhAqp1ab1_v1) |
| – | 84% | HA-tagged Senegalese sole Aqp1ab2 splice variant 2 (HA-SsAqp1ab2_v2) (natural protein) |
